Test results reported in US20150147384A1 (MIT, published 2015).
No end group written: not given here.

B1: acetyl-AAAAAAK-CONH2 (peptide)
peptide: Ac-AAAAAAK-NH2
B2: DAAAAAA-COOH (peptide)
peptide: DAAAAAA-OH
B3: KAAAAAA-CONH2 (peptide)
peptide: KAAAAAA-NH2
B4: acetyl-AAAAAAD-COOH (peptide)
peptide: Ac-AAAAAAD-OH

target: P-glycoprotein (UniProt P08183 1-1280); experiment: cell-based or functional assay
Sequence (P08183 whole entry): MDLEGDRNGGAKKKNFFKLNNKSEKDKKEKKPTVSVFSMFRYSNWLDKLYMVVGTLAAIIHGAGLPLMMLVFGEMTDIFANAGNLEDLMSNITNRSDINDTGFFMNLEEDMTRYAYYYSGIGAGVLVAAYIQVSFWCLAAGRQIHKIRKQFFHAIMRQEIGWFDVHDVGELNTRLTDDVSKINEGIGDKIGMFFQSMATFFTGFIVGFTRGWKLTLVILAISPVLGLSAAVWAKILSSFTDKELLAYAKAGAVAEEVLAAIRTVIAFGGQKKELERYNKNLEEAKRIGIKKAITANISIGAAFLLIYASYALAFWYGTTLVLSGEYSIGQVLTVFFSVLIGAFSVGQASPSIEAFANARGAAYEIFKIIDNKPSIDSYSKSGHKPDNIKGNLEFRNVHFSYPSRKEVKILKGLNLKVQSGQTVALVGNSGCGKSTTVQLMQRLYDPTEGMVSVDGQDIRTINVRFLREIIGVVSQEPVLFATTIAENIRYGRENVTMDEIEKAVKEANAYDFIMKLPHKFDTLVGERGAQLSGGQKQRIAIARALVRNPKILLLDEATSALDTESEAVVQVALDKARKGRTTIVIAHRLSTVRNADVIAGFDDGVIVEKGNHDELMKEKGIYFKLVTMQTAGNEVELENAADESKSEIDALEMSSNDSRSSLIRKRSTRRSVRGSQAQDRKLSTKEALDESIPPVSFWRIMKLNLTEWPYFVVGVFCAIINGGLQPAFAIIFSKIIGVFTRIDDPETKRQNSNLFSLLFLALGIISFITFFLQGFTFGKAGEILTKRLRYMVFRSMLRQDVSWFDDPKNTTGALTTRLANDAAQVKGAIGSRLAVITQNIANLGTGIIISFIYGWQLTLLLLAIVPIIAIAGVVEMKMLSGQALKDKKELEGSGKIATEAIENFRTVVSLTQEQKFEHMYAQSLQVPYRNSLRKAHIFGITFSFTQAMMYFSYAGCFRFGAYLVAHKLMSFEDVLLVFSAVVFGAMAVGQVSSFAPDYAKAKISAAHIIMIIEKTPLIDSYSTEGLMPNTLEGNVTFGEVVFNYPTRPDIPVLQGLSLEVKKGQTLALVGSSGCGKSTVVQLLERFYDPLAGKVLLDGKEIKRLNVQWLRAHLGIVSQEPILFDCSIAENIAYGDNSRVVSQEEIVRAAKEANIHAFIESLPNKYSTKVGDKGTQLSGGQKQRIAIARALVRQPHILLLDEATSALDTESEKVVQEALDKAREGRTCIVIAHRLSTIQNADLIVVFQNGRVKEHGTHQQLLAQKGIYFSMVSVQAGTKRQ

Binder	Enhancement ratio of Rhodamine-123 transport against the control, peptide 0.02 mg/ml [ratio]	Enhancement ratio of Rhodamine-123 transport against the control, peptide concentration given as 2 mg/ml (caption: 0.2 mg/mL) [ratio]	Papp of Rhodamine-123 through a Caco-2 monolayer (basolateral to apical), peptide 0.02 mg/ml [×10⁻⁶ cm/s]	Papp of Rhodamine-123 through a Caco-2 monolayer (basolateral to apical), peptide concentration given as 2 mg/ml (caption: 0.2 mg/mL) [×10⁻⁶ cm/s]
B1	0.9	1.7	10	18.2
B2	1.2	1.4	13	15.1
B3	1	1	10.8	10.5
B4	0.9	1.7	10.1	18.4
